In the supplement of paper PMC9170038:

System: MS2 coat protein
Assay: apparent KD of MS2 coat protein; designed switch direction (-1 OFF switch, 1 ON switch): -1; higher = weaker reporter binding
Method in brief: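 Three titration conditions were used: no input, 200 uM small-molecule ligand, and an oligonucleotide input. In each, SNAP-549-labelled MS2 coat protein was raised from 0.7 or 1.5 nM, doubling, to 3 µM over designed RNA switches transcribed on Illumina chips by stalled E. coli RNA polymerase. Curve fits of normalised cluster fluorescence gave values whose per-design median over clusters is the apparent KD.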

[1] = input ligand: microRNA oligo, concentration not stated
[2] = Eterna round: R95, input ligand: microRNA oligo, concentration not stated
[3] = Eterna round: R95, input ligand: FMN 200 uM
[4] = Eterna round: R95, input ligand: none

Sequence	apparent KD of MS2 coat protein (input ligand: FMN 200 uM) [µM]	apparent KD of MS2 coat protein (input ligand: none) [µM]	apparent KD of MS2 coat protein [1] [µM]	apparent KD of MS2 coat protein [2] [µM]	apparent KD of MS2 coat protein [3] [µM]	apparent KD of MS2 coat protein [4] [µM]
CAGUACUGAGGAUAUACAUGAGGAUCACCCAUGUGUUCCAGCUAGGAUACUAGCAAGUGUAGAAGGCAGUACUG [Mat - Exclusion 3 - Eli Mod - D7] (Eterna round: R97, puzzle: Exclusion 3)	0.188	0.396				
CAGUACUGAGGAUAUACAUGAGGAUCACCCAUGUGUUCCAGCUAGGGAACUAGCAAAAGUAGAAGGCAGUACUG [salish99_ex3_r3_075] (Eterna round: R96, puzzle: Exclusion 3)	0.455	0.025	0.0204			
CAGUACUGAGGAUAUACAUGAGGAUCACCCAUGUGUUCCAGCUAGGGAACUAGCAAAAGUAGAAGGCAGUACUG [salish99_ex3_r3_075] (puzzle: Exclusion 3)				0.0231		
CAGUACUGAGGAUAUACAUGAGGAUCACCCAUGUUCCAAGGCUAGGAUACUAGCAAAGGUAGAAGGCAGUACUG [Mat - Exclusion 3 - Eli Mod - D26] (Eterna round: R97, puzzle: Exclusion 3)	0.15	0.0176				
CAUACACAUGAGGAUCACCCAUGUGAGGAUAUGCGUACGUUGUCCGUAGGCGACGUGCGCAGAAGGCGCAUGAG [JL-ex1-3.13 Eli mod] (puzzle: Exclusion 1)				0.0909	0.0276	0.0916
CAUACACAUGAGGAUCACCCAUGUGAGGAUAUGCGUACGUUGUCCGUAGGCGACGUGCGCAGAAGGCGCGUGUU [JL-ex1-3.15 Eli mod] (puzzle: Exclusion 1)				0.0425		
CAUACUCAAGUCAGGAUAUACAGUCGAAUACGGGUGUAGAAGGGACAUGAGGAUCACCCAUGUAGAGAGUAAAG [EX-4 Malc #22] (puzzle: Brourd's mod of Exclusion 4)				0.033	0.122	0.0361
CAUACUCAAGUCAGGAUAUGCAGUCGAAUACGGGUGUAGAAGGGACAUGAGGAUCACCCAUGUAGAGAGUAAAG [EX-4 Malc #21] (puzzle: Brourd's mod of Exclusion 4)				0.0368	0.0998	0.0511
CAUACUCAAGUGAGGAUAUAGUCUCGGAUACGAAACUAGAAGGCACAUGAGGAUCACCCAUGUAGAGAGUAAAG [EX-4 Malc #29] (puzzle: Brourd's mod of Exclusion 4)				0.0185	0.0627	0.0131
CAUACUGAAGUUAGGAUAUGCGGCCGAAUACGGGUGUAGAAGGGACAUGAGGAUCACCCAUGUAGAUAGUAAAG [EX-4 Malc #16] (puzzle: Brourd's mod of Exclusion 4)				0.0249	0.0273	0.0201
CAUACUGAAGUUAGGAUAUUCGAACGUAUACGGAUGGAGAAGGGACAUGAGGAUCACCCAUGUAGUUAGUAAAG [EX-4 Malc #10] (puzzle: Brourd's mod of Exclusion 4)				0.0174	0.0173	0.0223
CAUACUGAAGUUAGGAUAUUCGGACGUAUACGGAUGGAGAAGGGACAUGAGGAUCACCCAUGUAGAUAGUAAAG [EX-4 Malc #12] (puzzle: Brourd's mod of Exclusion 4)				0.0231	0.0227	0.0223
CAUAGCCGUGUAAGGAUAUCCGAUCCACGGGACAAGGAGAAGGUACAUGAGGAUCACCCAUGUAAGGGUUCCUA [Vecequve] (Eterna round: R97, puzzle: Brourd's mod of Exclusion 4)	0.0229	0.0217				
CAUAGUUACACAGGAUAUAGUACAUGAGGAUCACCCAUGUAAUAAAUGAGAAUUUCGAAUGUAUACUAGAAGGGUGAAAUCUAC [Ostracism 54 - Jieux - Exclusion NG 2] (Eterna round: R96, puzzle: Exclusion NG 2)	0.206	0.171	0.144			
CAUAUAGUAGUCAGGAUAUGCGAAUAUAUAAUUAAGUAGAAGGGACAUGAGGAUCACCCAUGUAUAUUGUAAAG [EX-4 Malc #2] (puzzle: Brourd's mod of Exclusion 4)				0.0261	0.0269	0.0284
CAUCUGUGAGGAUAUGGUGAGUAGUGCCUGAGCGCUGCUCACCAGAAGGCACAUGAGGAUCACCCAUGUAUGAA [Mat - Exclusion 4 - Mod of JL - D1] (puzzle: Exclusion 4)				0.0469		
CAUGAUCUUCGGAUCAUGUACAUGAGGAUCACCCAUGUUACGAGCUGAUUUUCAUACAAGCUUUUUGCUCGUCUUAU [Sensor v3 - Turn-off variant 1 - 30] (puzzle: Sensor v3, turn-off variant 1)				0.317	0.0415	0.043
CAUGAUUGACGAGGAUAUUGUUCUACAUCACGACGAGAAGGCGUCUGUCACAUGAGGAUCACCCAUGUGAGACUGGUGAAUGAG [Ex NG1 #81] (Eterna round: R96, puzzle: Exclusion NG 1)	0.0364	0.0204	0.0171			
CAUGCUUCGGCAUGUACAAGCUUUUUGCUCGUCUUAUUAACAUGAGGAUCACCCAUGUCAAAGAGACCUCAUGUAUU [Sensor v3 - turn-off variant 2 - 3] (puzzle: Sensor v3, turn-off variant 2)				0.016	0.356	0.263
CAUGCUUCGGCAUGUACAAGCUUUUUGCUCGUCUUAUUAACAUGAGGAUCACCCAUGUUAAUGAGACCUCAUGUAUU [Sensor v3 - turn-off variant 2 - 8] (puzzle: Sensor v3, turn-off variant 2)				0.0167	0.0136	0.0114
CAUGGCACGUAGGAUAUCUCGCAGCCCGGCUGCAGAGAAGGACGUACAUGAGGAUCACCCAUGUAUGAUCCAAA [Laquus] (puzzle: Exclusion 6)				0.0241		
CAUGGGUGUGAGCCGCAUUACAUGAGGAUCACCCAUGUCAACAAGCUUUUUGCUUGUCUUACGCGGCGGCACCAAAA [Bimaus] (puzzle: Sensor v3, turn-off variant 1)				0.00965	0.0174	0.0149
CAUGUCCAACGAGGAUAUGGGACAGGAAGUGUACCAGAAGGCGUACGGACAUGAGGAUCACCCAUGUCGCGCGGUGCGAUGUGG [MOD Nando EXNG 1.1] (Eterna round: R96, puzzle: Exclusion NG 1)	0.047	0.0917	0.0238			
CAUGUGUAAGGAUAUGACAAUGGUAUCGAAAGAUACCAUUGUCAGAAGGUACAUGAGGAUCACCCAUGUAGAUC [Ex4-3: 19] (puzzle: Exclusion 4)				0.0608	0.342	0.0863
CAUUAAACGGAGGAUAUCCUAUAUAUAAUAAUAGGAGAAGGUCGUACAUGAGGAUCACCCAUGUGUGGACAUGG [something] (puzzle: Exclusion 6)				0.206	0.107	0.249
CAUUAUGUUGAGGAUAUGCGCCGGAAAACUGACGCAGAAGGCGACACAUGAGGAUCACCCAUGUCAGUUUUCGA [salish99_ex6_r004_426] (Eterna round: R97, puzzle: Exclusion 6)	0.136	0.273				
CAUUAUUAUCGAGGAUAUCCUAUUGAAAUUCUGGGAGAAGGCGGACUCAACAUGAGGAUCACCCAUGUGGGACGGAUGCUAGGC [salish99_exng1_r04_601] (Eterna round: R96, puzzle: Exclusion NG 1)	0.0142	0.0193	0.0156			
CAUUGUUAUCGAGGAUAUCCUAUUGAGAUUCUAGGAGAAGGCGGACUAAACAUGAGGAUCACCCAUGUGGGACGGAUGCUAGGG [Ex NG1 #30] (Eterna round: R96, puzzle: Exclusion NG 1)	0.0314	0.0252	0.0198			
CCAAACAGAGGAUAUGCGAAUAAAUAAAACUUUUUUUUUUAACAUGAGGAUCACCCAUGUAGAAGGCUGCAACC [Ex2 #40] (Eterna round: R97, puzzle: Exclusion 2)	0.0244	0.0195				
CCAAAGUCAGGAUAUACAUGAGGAUCACCCAUGUAAAAUUUUAAUUUAAUUUGAAGGUGUAGAAGGGACAAACC [Ex3 #32] (Eterna round: R97, puzzle: Exclusion 3)	0.0305	0.0303				
